Experimental findings from US6780971B2, “Compositions for inhibiting the aggregation pathway of α-synuclein” (Panacea Pharmaceuticals, Inc., priority 2000, dated 2004) are described below.

In data set [1] the target is T1, NAC portion (approx. amino acids 61-87) of α-synuclein (Homo sapiens, UniProt P37840).
T1 construct: The peptides were selected using the α-synuclein 121-131 and 61-87 peptides as the bait
As to the kind of experiment: Phage display selection for binding to NAC portion of α-synuclein. As to conditions: for binding to the NAC portion of α-synuclein: phage display; for relative binding properties: NAC portion binders. The text has this:
(§1) Such peptides can be found, for instance, by using phage display to select for those phage expressing a peptide on their surface that binds to α-synuclein, and determining what the peptide is. The inhibitory effect of that peptide, or any peptide for that matter, can also be tested to determine its usefulness as an agent for treating a Lewy body disease or synucleinopathy by using assays such as those disclosed herein or as disclosed in U.S. Pat. No. 6,184,351, which is incorporated herein by reference. Such peptides have been selected for their ability to bind to the C-terminal (approx. amino acids 113-140), and the NAC portion (approx. amino acids 61-87) of α-synuclein, because this region is thought to be involved with the aggregation process. Several peptides that bind to the C-terminal portion are as follows (all peptides are given in […] order): (1) WRQTRKD (SEQ ID NO: 1); (2) HYAKNPI (SEQ ID NO: 2); (3) ATINKSL (SEQ ID NO: 3); (4) RRRGMAI (SEQ ID NO: 4); (5) THRLPSR (SEQ ID NO: 5); and (6) TKHGPRK (SEQ ID NO: 6). Several peptides that bind to the NAC portion are: (1) SLKRLPK (SEQ ID NO: 7); (2) RLRGRNQ (SEQ ID NO: 8); (3) WPFHHHR (SEQ ID NO: 9); (4) HLYHHKT (SEQ ID NO: 10); (5) THIHHPS (SEQ ID NO: 11); and (6) MMMMMRL (SEQ ID NO: 12). […] Most preferred is the peptide SLKRLPK (SEQ ID NO: 7).
(§2) Phage display: Incubating a library of phage that is all identical except for a sequence of 7 amino acids that are presented on the coat and randomly differ from phage to phage. Phage which express a sequence that specifically binds to α-synuclein are then isolated, cloned, and the DNA sequenced to determined the amino acid sequence. The 7 amino acid peptide is then synthesized and tested directly.
(§3) Phage display (phage display kit was from New England Biolabs (Beverly, Mass.)) was used to specifically select for peptides that can inhibit iron binding. […] The peptides were selected using the α-synuclein 121-131 and 61-87 peptides as the bait. One such peptide has the sequence SLKRLPK (SEQ ID NO: 7).

Data set [2] deals with T2, C-terminal (approx. amino acids 113-140) of α-synuclein (Homo sapiens, UniProt P37840).
T2 construct: The peptides were selected using the α-synuclein 121-131 and 61-87 peptides as the bait
In words: Phage display selection for binding to C-terminal portion of α-synuclein. As to conditions: for binding to the C-terminal portion of α-synuclein: phage display.
From the text: as §1, §2, §3

Data set [3] deals with BE-M17 neuroblastoma cells. In words: Iron-induced α-synuclein aggregation in BE-M17 cell lines (fractionation, immunoblot). The data set is classed as cell-based, human. As to conditions: for formation of large α-synuclein aggregates migrating in the stacking gel: cells over-expressing A30P or wild type α-synuclein, 48 hrs, 10 mM FeCl2 and/or 5-500 μM dopamine. Here is the method: Immunoblotting: Cells were harvested with SDS lysis solution (2% SDS, 10 mM Tris, pH 7.4, 2 mM β-glycerol phosphate, 1 μM AEBSF). The amount of protein was determined using the BCA assay (Pierce), […] per lane was run on 14% SDS polyacrylamide gels and transferred to nitrocellulose (200 mAmp, 12 hrs). The nitrocellulose was then incubated 1 hr in 5% milk/PBS, washed, incubated overnight in 1° antibody, washed, then incubated 3 hrs in peroxidase coupled 2° antibody and developed with chemiluminescent reagent (NEN).
Cell fractionation: For cell fractionation the cells were harvested in buffer containing 20 mM Tris, pH 7.4, 2 mM EDTA, 0.25 M sucrose, and 20 μg/mL protease inhibitor cocktail (Sigma). The cell lysate was sonicated and centrifuged at 100,000×g at 4° C. for 1 hr.
To test whether A53T and A30P mutations in α-synuclein increase the tendency of α-synuclein to aggregate in neurons, α-synuclein aggregation was determined in human BE-M17 neuroblastoma cells that were stably transfected with wild type, A53T or A30P α-synuclein. Each cell line was treated for 48 hours with freshly prepared FeCl2 (1 or 10 mM), then harvested, homogenized and fractionated into membrane and cytoplasmic components. The membrane (5 μg/lane) and cytoplasmic (20 μg/lane) components were immunoblotted with monoclonal anti-α-synuclein antibody.
To determine the effect of increasing the duration of exposure to iron on aggregation of α-synuclein at lower doses of iron, BE-M17 cells which are over-expressing A53T or wildtype α-synuclein were exposed to FeCl2 for 4 days. Under these conditions, doses as low as 0.3 μM FeCl2 produced detectable aggregation of α-synuclein in cells expressing A53T α-synuclein.
Neurol. 57:793-796 (2000)]. If so, adding free radical generators, such as hydrogen peroxide or dopamine, along with the iron might increase the amount of α-synuclein aggregation. To further determine that oxidation enhanced iron-induced aggregation of α-synuclein, BE-M17 cells over-expressing A30P or wildtype α-synuclein were treated for 48 hrs with 10 mM FeCl2 plus varying concentrations of dopamine (0.5, 50, and 500 μM).

Data set [4] has as its target T3, α-synuclein (Homo sapiens, UniProt P37840).
T3 construct: His-6 (cleaved yes); made in house; host or cells: bacteria (IPTG-induced; Pro-Ex His 6 vector)
As to the kind of experiment: Tyrosine fluorescence assay of metal binding to α-synuclein. As to conditions: wildtype α-synuclein. As to the method:
(§4) Because iron binds to other proteins that form aggregates and iron is known to accumulate in Parkinson's disease, iron might bind directly to α-synuclein. To confirm this hypothesis, the interaction of iron with α-synuclein was tested using tyrosine fluorescence as an indicator of iron binding. […] Fluorescence of tyrosine has been used to monitor binding of metals to β-amyloid [Garzon-Rodriguez W. et al., Bioorg. Med. Chem. Let., 9:2243-2248 (1999), which is hereby incorporated by reference]. A similar approach was taken to analyze binding of iron to α-synuclein. Tyrosine has a fluorescence emission spectrum that has a peak emission of 310 nm when excited at 280 nm, respectively (FIG. 2A). It was observed that binding of iron reduced the fluorescence of the tyrosines in α-synuclein. […] The Hill coefficient was 1.0 (R^2=1.0, P<0.0001), indicating one binding site for iron with no cooperativity (FIGS. 2A & B). α-Synuclein was also tested for binding to other metals, including CuCl2, ZnCl2 and MgCl2. Because the C-terminus of α-synuclein has a region with 7 glutamates and 4 aspartates, which together could chelate iron, we created a deletion construct lacking the last 27 amino acids on α-synuclein and analyzed binding of this construct.
To monitor the binding profiles of Fe(II) and Mg(II) to α-synuclein in vitro we used changes of tyrosine fluorescence. Tyrosine fluorescence is used as an indicator of changes in protein conformation or binding of metals. Excitation of tyrosine at 280 nm elicits fluorescence that peaks at 310 nm for monomeric tyrosine, and at 350-400 nm for tyrosinate or dimeric tyrosine. The fluorescence spectrum of α-synuclein yielded fluorescence peaks at 310 and 400 nm. The peak at 400 nm cannot be explained by the presence of dimeric tyrosine, due to dimerization of α-synuclein, because dimerization of α-synuclein decreases the fluorescence at 400 nm, and tends to eliminate the peak at 400 nm.

The target in the next data set is T4, α-synuclein ΔC1-113 (Homo sapiens, UniProt P37840).
T4 construct: made in house
In words: Tyrosine fluorescence assay of iron binding to C-terminal deletion construct. As to the method: as §4

A further data set has as its target T5, A53T α-synuclein (Homo sapiens, UniProt P37840, A53T).
T5 construct: His-6 (cleaved yes); made in house; host or cells: bacteria (IPTG-induced; Pro-Ex His 6 vector)
In words: Tyrosine fluorescence assay of metal binding to A53T α-synuclein. From the text:
We also examined how the A53T mutation in human α-synuclein affected binding of iron and magnesium. […] Previous studies have shown that A53T mutation changes the conformation of α-synuclein by increasing its helical content (Polymeropoulos et al., Science, 276:2045-7(1997)). These conformational changes might also reduce binding of magnesium to α-synuclein.

Data set [5] relates to BE-M17 cells over-expressing α-synuclein. As to the kind of experiment: Iron-mediated toxicity in BE-M17 cell lines, MTT assay. The data set is classed as cell-based. As to conditions: for reduction of LD50 by α-synuclein over-expression: 48 hrs. As to the method:
To determine if the conditions that produce α-synuclein aggregation also produce toxicity, the vulnerability of each cell line to iron and/or hydrogen peroxide-mediated toxicity was tested. Each cell line (untransfected, wild type, A53T and A30P a-synuclein) was treated with varying doses of FeCl2, H2O2 or FeCl2+H2O2 and the amount of toxicity was determined by MTT assay. […] Over-expression of A30P or wild type α-synuclein constructs reduced the LD50 values by ˜50%, although the amount of toxicity seen in A30P-expressing cells in response to low levels of iron was generally greater than toxicity seen with wildtype α-synuclein (FIG. 1A). To confirm that over-expression of α-synuclein increased the vulnerability of the neuroblastoma cells to iron, iron-induced toxicity was tested using a LDH assay (FIG. 1B). The LDH assay confirmed that over-expression of the α-synuclein constructs increases iron-induced toxicity (FIG. 1B).

In data set [6] the target is T3, α-synuclein. As to the kind of experiment: Phage ELISA binding to α-synuclein absorbed to plastic well. Here is the method: Bound phage was detected by adding peroxidase coupled anti-phage antibody, incubating 1 hr, washing 5 times and detecting signal using the peroxidase substrate ABTS. Bound phage produces a dark green signal that is measured as optical density with a spectrophotometer. Using these conditions, the phage containing the SLKRLPK (SEQ ID NO: 7) peptide gave OD's of 0.882, 0.844, and 0.480 at dilutions of 1:10, 1:100, and 1:1000, respectively.

A value given as a limit tells only on which side of the number the result lay.

With WPFHHHR (listed as Homo sapiens), the “binding to the NAC portion of α-synuclein” value (from here on “binding to the NAC portion”) in data set [1] is “bind”.
For the compound ATINKSL (listed as Homo sapiens), the “binding to the C-terminal portion of α-synuclein” value (“binding to the C-terminal portion” for short) in data set [2] is reported as “bind”.
On to `NCCc1ccc(O)c(O)c1` [dopamine], for which the “formation of large α-synuclein aggregates migrating in the stacking gel” value in data set [3] is “did not induce formation of large α-synuclein aggregates”.
With THRLPSR (listed as Homo sapiens), in data set [2] (C-terminal portion binder), the relative binding properties result was “stronger binding properties”. Besides, the “binding to the C-terminal portion” value in data set [2] is reported as “bind”.
With HYAKNPI (listed as Homo sapiens), in data set [2], the “binding to the C-terminal portion” value is “bind”.
On to TKHGPRK (listed as Homo sapiens), for which, in data set [2], the “binding to the C-terminal portion” value is “bind”.
RRRGMAI (listed as Homo sapiens): in data set [2], the “binding to the C-terminal portion” value is listed as “bind”.
With RLRGRNQ (listed as Homo sapiens), the “binding to the NAC portion” value in data set [1] is given as “bind”.
With WRQTRKD (listed as Homo sapiens), the “binding to the C-terminal portion” value in data set [2] is “bind”.
`[Cl][Fe][Cl]` [FeCl2]: the “Hill coefficient of iron binding curve” value on α-synuclein [4] was 1.0. Moreover, the IC50 on α-synuclein [4] (excitation 280 nm, sigmoidal fit, read-out: IC50 of quenching of α-synuclein tyrosine fluorescence (iron binding)) was determined as 173 µM; at α-synuclein ΔC1-113 (construct lacking the last 27 amino acids), 726 µM. Besides, on α-synuclein ΔC1-113 (ΔC1-113 versus wildtype α-synuclein), the “reduction in iron binding versus wildtype” value is greater than 4 fold. Further, on A53T α-synuclein, the “effect of A53T mutation on binding to α-synuclein” value is listed as “did not change the apparent affinity”. Also, the “increase in vulnerability to induced toxicity in cells over-expressing α-synuclein” value in data set [5] was no more than 4 fold. In addition, the “reduction of LD50 by α-synuclein over-expression” value in data set [5] (A30P or wild type α-synuclein over-expressing cells versus untransfected) is listed as roughly 50%; in data set [5] (A53T α-synuclein over-expressing cells versus untransfected) it was “over 75%”. Besides, the α-synuclein aggregate formation result in data set [3] (A53T-expressing cell line, 1 or 10 mM, 48 hours, membrane fraction) is recorded as “induced dose-dependent formation of heterogeneous high molecular weight α-synuclein aggregates”; in data set [3] (untransfected, wildtype and A30P cell lines, 48 hr) it was “did not induce α-synuclein aggregates”. Moreover, in data set [3] (cells expressing A53T α-synuclein, 4 days), the “lowest dose producing detectable aggregation of α-synuclein” value was determined as 0.3 µM. The “formation of large α-synuclein aggregates migrating in the stacking gel” value in data set [3] is reported as “did not induce any aggregation”.
With SLKRLPK (listed as Homo sapiens), the “OD of bound phage” value in the data set with α-synuclein [6] (phage dilution 1:10) worked out at 0.882; in the data set with α-synuclein [6] (phage dilution 1:100), 0.844; with α-synuclein [6] (phage dilution 1:1000), 0.480. The “binding of phage to α-synuclein by ELISA” value with α-synuclein [6] (phage expressing the sequence) is given as “particularly strong binding”. The relative binding properties result in data set [1] is reported as “stronger binding properties”. Further, the “binding to the NAC portion” value in data set [1] was “bind”.
Take MMMMMRL (listed as Homo sapiens): in data set [1], the relative binding properties result was “stronger binding properties” and the “binding to the NAC portion” value is reported as “bind”.
On to THIHHPS (listed as Homo sapiens), for which, in data set [1], the relative binding properties entry is “stronger binding properties” and the “binding to the NAC portion” value is reported as “bind”.
For HLYHHKT (listed as Homo sapiens), in data set [1], the “binding to the NAC portion” value is listed as “bind”.
